Molecular target: microtubules (polymerized porcine tubulin) (porcine) (UniProt P02550)
Experiment: co-sedimentation; purified MTBDs (1-32 uM) mixed with 5 uM paclitaxel-stabilised porcine MTs; 100 mM PIPES pH 6.8, 50 mM NaCl, 2 mM MgCl2, 1 mM EGTA; 210,000 x g, 25 °C, 10 min; pellets on SDS-PAGE, densitometry, one-site curve fitting

Substance: MTBD-High, MTBD(I3101C/V3222C) (from UniProt P36022 3096-3232) (domain or fragment)
- Kd: 4.8 µM
